Source: PMC12868882, “Held out wings RNA binding activity in the cytoplasm during early spermatogenesis”

T1: HOW-STAR (STAR domain of Held out wings) (Drosophila melanogaster, UniProt O01367 72-266)
T1 sequence: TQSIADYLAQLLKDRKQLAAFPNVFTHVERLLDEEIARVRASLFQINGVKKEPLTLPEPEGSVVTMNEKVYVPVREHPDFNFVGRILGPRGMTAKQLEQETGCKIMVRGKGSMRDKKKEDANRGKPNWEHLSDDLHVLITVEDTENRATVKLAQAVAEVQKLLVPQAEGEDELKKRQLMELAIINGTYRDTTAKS


target: T1, HOW-STAR (STAR domain of Held out wings); experiment: fluorescence anisotropy; apparent KD; text: did not bind in the low nanomolar range; RNA binding buffer: 20 mM Tris-HCl pH 7.5, 150 mM NaCl, 0.01% Triton X-100; 20 uL of 5 nM labelled RNA in about 60 uL; at least 45 min equilibration; temperature not stated; settings: protein: recombinant; tags: His6-GST removed by 3C protease; chain copies: 2; label: 3' 6-carboxyfluorescein

Row | Binder | Kd [nM]
1 | GUUGGCGUGUUUU (ssRNA) [Jvl] | 803

target: T1, HOW-STAR (STAR domain of Held out wings); experiment: fluorescence anisotropy; apparent KD; RNA binding buffer: 20 mM Tris-HCl pH 7.5, 150 mM NaCl, 0.01% Triton X-100; 20 uL of 5 nM labelled RNA in about 60 uL; at least 45 min equilibration; temperature not stated; settings: protein: recombinant; tags: His6-GST removed by 3C protease; chain copies: 2; label: 3' 6-carboxyfluorescein

Row | Binder | Kd [nM]
2 | AGCAACUAACAAUU (ssRNA) [Hipk-RA G5A] | 4.65
3 | AGCAGCUAACAAUU (ssRNA) [Hipk-RA] | 10.1
4 | AGCAGCUGACAAUU (ssRNA) [Hipk-RA A8G] | 85.3
5 | ACACACUAACUCGUAACUAUG (ssRNA) [Lola + half-site] | 9.25
6 | AGCACCUAACAAUU (ssRNA) [Hipk-RA G5C] | 20.4
7 | UACAACUAACAACUAACAGAU (ssRNA) [Hipk double motif] | 7.46
8 | AGCAUCUAACAAUU (ssRNA) [Hipk-RA G5U] | 12.4
9 | ACACACUAACUCGU (ssRNA) [Lola] | 6.05
